Measured values published in patent US20250313633A1 (WUXI BIOLOGICS IRELAND, published 2025).
Values belong to the binder of their own block, whether it stands above or below them.

Tests used:
[1] = biological target: T1, human full-length B7H3 on MCF-7 cells (human, UniProt Q5ZPR3 29-534); assay: FACS on MCF-7 cells
T1 chain: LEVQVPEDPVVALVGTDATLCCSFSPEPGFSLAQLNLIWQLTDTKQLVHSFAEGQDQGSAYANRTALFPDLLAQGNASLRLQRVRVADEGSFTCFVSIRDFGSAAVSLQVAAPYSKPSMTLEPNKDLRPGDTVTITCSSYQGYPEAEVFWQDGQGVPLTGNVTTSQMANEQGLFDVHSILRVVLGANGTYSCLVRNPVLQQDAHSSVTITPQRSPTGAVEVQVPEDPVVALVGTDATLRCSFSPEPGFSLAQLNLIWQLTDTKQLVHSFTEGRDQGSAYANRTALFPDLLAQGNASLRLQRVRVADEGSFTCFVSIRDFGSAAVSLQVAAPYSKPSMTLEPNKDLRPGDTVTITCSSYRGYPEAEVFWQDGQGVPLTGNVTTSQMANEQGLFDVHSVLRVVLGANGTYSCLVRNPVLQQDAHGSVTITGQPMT

[2] = biological target: T1, human full-length B7H3 on MCF-7 cells; assay: cell-based or functional assay
[3] = biological target: T1, human full-length B7H3 on MCF-7 cells; assay: cell-based or functional assay

Max MFI [1]: 4640 MFI | Internalization on MCF-7, EC50 [2]: 1.95 nM | Internalization on MCF-7, Max MFI [2]: 39800 MFI
B1: Enoblituzumab (MacroGenics) (antibody, V domains shown)
VH: EVQLVESGGGLVQPGGSLRLSCAASGFTFSSFGMHWVRQAPGKGLEWVAYISSDSSAIYYADTVKGRFTISRDNAKNSLYLQMNSLRDEDTAVYYCGRGRENIYYGSRLDYWGQGTTVTVSS
VL: DIQLTQSPSFLSASVGDRVTITCKASQNVDTNVAWYQQKPGKAPKALIYSASYRYSGVPSRFSGSGSGTDFTLTISSLQPEDFATYYCQQYNNYPFTFGQGTKLEIKR

Max MFI [1]: 19900 MFI | internalization, EC50 [3]: 0.51 nM | Internalization on MCF-7, EC50 [2]: 0.44 nM | Internalization on MCF-7, Max MFI [2]: 52300 MFI
B2: W301088-1.145.16-z3-p1-uIgG1KV320 (antibody, V domains shown)
VH: QVQLQESGPGLVKPSQTLSLTCTVTDYSITGDYAWNWIRQHPGKGLEWIGYISYSGSTSYNPSLQSRVTISRDTSKNQFSLKLSSVTAADTAVYFCARSLGRRWYFVVWGQGTTVTVSS
VL: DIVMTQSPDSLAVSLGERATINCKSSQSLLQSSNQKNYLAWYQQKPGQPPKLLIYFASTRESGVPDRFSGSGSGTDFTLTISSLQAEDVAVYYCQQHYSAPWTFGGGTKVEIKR
notes: human IgG1 LALA, kappa; also called the final lead antibody; final lead

Max MFI [1]: 19800 MFI | Internalization on MCF-7, EC50 [2]: 0.51 nM | Internalization on MCF-7, Max MFI [2]: 57200 MFI
B3: W301088-1.145.16-xIgG1KV320 (antibody, V domains shown)
VH: DVQLQESGPGLVKPSQSLSLTCTVTDYSITGDYAWNWIRQFPGNKLEWMGYISYSGSTSYNPSLQSRISITRDTSKNQFFLQLNSVTSEDTATYFCARSLGRRWYFVVWGAGTTVTVSA
VL: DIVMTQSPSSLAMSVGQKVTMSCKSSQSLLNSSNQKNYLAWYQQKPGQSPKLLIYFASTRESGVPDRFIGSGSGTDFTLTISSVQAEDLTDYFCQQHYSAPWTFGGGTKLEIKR
notes: also called the chimeric antibody; chimeric antibody
